Results taken from US12304939B2, “EGFR and C-met fibronectin type III domain binding molecules” (Janssen Biotech, Inc., priority 2012, dated 2025).

Experiments:
[1] = system: H292-HGF human lung cancer xenograft; test: Efficacy of bispecific molecule and other inhibitors of EGFR and c-Met, subcutaneous H292-HGF human lung cancer xenograft; format: in vivo, SCID/Beige mice; conditions: mouse, in vivo
Method: The H292-HGF cells were maintained in vitro in RPMI1640 medium supplemented with fetal bovine serum (10% v/v), and L-glutamine (2 mM) at 37° C. in an atmosphere of 5% CO2 in air. The cells were routinely subcultured twice weekly by trypsin-EDTA treatment. The cells growing in an exponential growth phase were harvested and counted for tumor inoculation.
Each mouse was inoculated subcutaneously at the right flank region with H292-HGF tumor cells (2×10^6) in 0.1 ml of PBS with cultrex (1:1) for tumor development. The treatments were started when the mean tumor size reached 139 mm3. […] The date of tumor cell inoculation was denoted as day 0.
Before commencement of treatment, all animals were weighed, and the tumor volumes were measured. Since the tumor volume can affect the effectiveness of any given treatment, mice were assigned into groups using randomized block design based upon their tumor volumes. […] The randomized block design was used to assign experimental animals to groups. First, the experimental animals were divided into homogeneous blocks according to their initial tumor volume. Secondly, within each block, randomization of experimental animals to treatments was conducted.
The endpoint was whether tumor growth can be delayed or tumor bearing mice can be cured. Tumor size was measured twice weekly in two dimensions using a caliper, and the volume was expressed in mm3 using the formula: V=0.5 a×b2 where a and b are the long and short diameters of the tumor, respectively. The tumor size was then used for calculations of both T-C and T/C values. T-C was calculated with T as the time (in days) required for the mean tumor size of the treatment group to reach 1000 mm3, and C was the time (in days) for the mean tumor size of the control group to reach the same size. The T/C value (in percent) was an indication of antitumor efficacy; T and C were the mean tumor volume of the treated and control groups, respectively, on a given day. Complete tumor regression (CR) is defined as tumors that are reduced to below the limit of palpation (62.5 mm3). Partial tumor regression (PR) is defined as tumors that are reduced from initial tumor volume. A minimum duration of CR or PR in 3 or more successive tumor measurements is required for a CP or PR to be considered durable.
Statistical analyses of difference in tumor volume among the groups were evaluated using a one-way ANOVA followed by individual comparisons using Games-Howell (equal variance not assumed). All data were analyzed using SPSS 18.0. p<0.05 was considered to be statistically significant.

[2] = Body weight loss and tolerability in the H292-HGF xenograft study; conditions: mouse, in vivo
Method: At the time of routine monitoring, the animals were checked for any effects of tumor growth and treatments on normal behavior, such as mobility, visual estimation of food and water consumption, body weight gain/loss (body weights were measured twice weekly), eye/hair matting and any other abnormal effect.
Animals for which the body weight loss exceeded 20%, or for which the mean tumor size of the group exceeds 2000 mm^3 were euthanized. The study was terminated after two weeks of observation after the final dose.

[3] = Differential scanning calorimetry in PBS (thermal stability); format: physicochemical; conditions: DSC in PBS, EGFR-binding FN3 domains
Source text: A subset of the EGFR binding FN3 domains was engineered to increase the conformational stability of each molecule. […] The new mutants, P54AR5-83v2, P54CR431-v2, and P54AR4-37v2 were expressed and purified as described above. Differential scanning calorimetry in PBS was used to assess the stability of each mutant in order to compare it to that of the corresponding parent molecule.
Differential scanning calorimetry in PBS was used to assess the stability of each FN3 domain.

[4] = system: H292 cells; test: Inhibition of proliferation of HGF-induced H292 cells; format: cell-based, human; conditions: bispecific molecules
Source text: Inhibition of tumor cell proliferation can be measured using standard methods and methods described herein.
The proliferation assay was completed using different combinations EGFR and c-Met binding FN3 domains either as a mixture or linked in a bispecific format. […] This confirmed that the avidity effect observed at the level of the receptors (FIG. 4 and FIG. 5) translates into an improvement in inhibiting cell signaling (Table 12) and cell proliferation (Table 13).
Inhibition of human tumor cell growth was assessed in standard attachment culture as described in Examples 3 or 6, or in low attachment conditions.

[5] = system: NCI-H292 cells expressing human HGF; test: Tumor efficacy study with four bispecific EGFR/c-Met molecules, H292-HGF xenografts; format: in vivo, SCID Beige mice; conditions: 25 mg/kg three times per week
Method: One week after implantation, mice were stratified into groups with equivalent tumor volumes (mean tumor volume=77.9+/−1.7 mm3). Mice were dosed three times per week with the bispecific molecules and tumor volumes were recorded twice weekly.

Molecule: C[C@@H](Oc1cc(-c2cnn(C3CCNCC3)c2)cnc1N)c1c(Cl)ccc(F)c1Cl [Crizotinib, crizotinib, reference compound]
- antitumor activity (in words) [1]: no antitumor activity
- toxicity, body weight loss, tolerability (in words) [2]: More severe body weight loss

Molecule: C#Cc1cccc(Nc2ncnc3cc(OCCOC)c(OCCOC)cc23)c1 [Erlotinib, erlotinib, reference compound]
- toxicity, body weight loss, tolerability (in words) [2]: More severe body weight loss

B1: P54AR4-37v2: EGFR-binding FN3 domain, SEQ ID NO: 29; stabilized P54AR4-37 (protein)
chain: LPAPKNLVVSEVTEDSLRLSWTWPYADLDSFLIQYQESEKVGEAINLTVPGSERSYDLTGLKPGTEYTVSIYGVHNVYKDTNMRGLPLSAEFTT
modifications: EGFR binding FN3 domain
- Tm [3]: 64.2 °C

B2: P54AR4-83: EGFR-binding FN3 domain, SEQ ID NO: 25 (protein)
chain: LPAPKNLVVSEVTEDSLRLSWDDPWAFYESFLIQYQESEKVGEAINLTVPGSERSYDLTGLKPGTEYTVSIYGVHNVYKDTNMRGLPLSAEFTT
modifications: EGFR binding FN3 domain
- Tm [3]: 50.6 °C

B3: P54AR4-37: EGFR-binding FN3 domain, printed SEQ ID NO: 22 (possibly P54AR4-73) (protein)
chain: LPAPKNLVVSEVTEDSLRLSWTWPYADLDSFLIQYQESEKVGEAINLTVPGSERSYDLTGLKPGTEYTVSIYGVHNVYKDTNMRGLPLSAEFTT
modifications: EGFR binding FN3 domain
- Tm [3]: 45.9 °C

B4: P54CR4-31: EGFR-binding FN3 domain, SEQ ID NO: 26 (protein)
chain: LPAPKNLVVSEVTEDSLRLSWTAPDAAFDSFLIQYQESEKVGEAINLTVPGSERSYDLTGLKPGTEYTVSIYGVLGSYVFEHDVMLPLSAEFTT
modifications: EGFR binding FN3 domain
- Tm [3]: 60.9 °C

B5: P54CR4-31v2: EGFR-binding FN3 domain, SEQ ID NO: 28; stabilized P54CR4-31 (protein)
chain: LPAPKNLVVSEVTEDSARLSWTAPDAAFDSFLIQYQESEKVGEAIVLTVPGSERSYDLTGLKPGTEYTVSIYGVLGSYVFEHDVMLPLSAIFTT
modifications: EGFR binding FN3 domain
- Tm [3]: 78.9 °C

B6: ECB97: bispecific SEQ ID NO: 64: P54AR4-83v22, (AP)5, P114AR7P95-C5v2 (protein)
chain: MLPAPKNLVVSEVTEDSARLSWDDPWAFYESFLIQYQESEKVGEAIVLTVPGSERSYDLTGLKPGTEYTVSIYGVHNVYKDTNIRGLPLSAIFTTAPAPAPAPAPLPAPKNLVVSRVTEDSARLSWTAPDAAFDSFWIRYFEFLGSGEAIVLTVPGSERSYDLTGLKPGTEYVVNILSVKGGSISPPLSAIFTT
modifications: bispecific EGFR/cMet binding molecule
- IC50 [4]: 31 nM

B7: ECB109: bispecific SEQ ID NO: 68: P54AR4-83v23, (AP)5, P114AR7P95-C5v2 (protein)
chain: MLPAPKNLVVSEVTEDSARLSWDDPHAFYESFLIQYQESEKVGEAIVLTVPGSERSYDLTGLKPGTEYTVSIYGVHNVYKDTNIRGLPLSAIFTTAPAPAPAPAPLPAPKNLVVSRVTEDSARLSWTAPDAAFDSFWIRYFEFLGSGEAIVLTVPGSERSYDLTGLKPGTEYVVNILSVKGGSISPPLSAIFTT
modifications: bispecific EGFR/cMet binding molecule
- IC50 [4]: 574 nM

B8: ECB106: bispecific SEQ ID NO: 65: P54AR4-83v23, (AP)5, P114AR7P94-A3v22 (protein)
chain: MLPAPKNLVVSEVTEDSARLSWDDPHAFYESFLIQYQESEKVGEAIVLTVPGSERSYDLTGLKPGTEYTVSIYGVHNVYKDTNIRGLPLSAIFTTAPAPAPAPAPLPAPKNLVVSRVTEDSARLSWTAPDAAFDSFWIRYFEFLGSGEAIVLTVPGSERSYDLTGLKPGTEYVVNILGVKGGKISPPLSAIFTT
modifications: bispecific EGFR/cMet binding molecule
- IC50 [4]: 484 nM

B9: ECB107: bispecific SEQ ID NO: 66: P54AR4-83v23, (AP)5, P114AR9P121-A6v2 (protein)
chain: MLPAPKNLVVSEVTEDSARLSWDDPHAFYESFLIQYQESEKVGEAIVLTVPGSERSYDLTGLKPGTEYTVSIYGVHNVYKDTNIRGLPLSAIFTTAPAPAPAPAPLPAPKNLVVSRVTEDSARLSWTAPDAAFDSFWIRYFEFVGSGEAIVLTVPGSERSYDLTGLKPGTEYVVNILGVKGGSISPPLSAIFTT
modifications: bispecific EGFR/cMet binding molecule
- IC50 [4]: 2640 nM

B10: ECB108: bispecific SEQ ID NO: 67: P54AR4-83v23, (AP)5, P114AR9P122-A7v2 (protein)
chain: MLPAPKNLVVSEVTEDSARLSWDDPHAFYESFLIQYQESEKVGEAIVLTVPGSERSYDLTGLKPGTEYTVSIYGVHNVYKDTNIRGLPLSAIFTTAPAPAPAPAPLPAPKNLVVSRVTEDSARLSWTAPDAAFDSFWIRYFEFVSKGDAIVLTVPGSERSYDLTGLKPGTEYVVNILGVKGGSISPPLSAIFTT
modifications: bispecific EGFR/cMet binding molecule
- IC50 [4]: 11400 nM

B11: ECB18: bispecific SEQ ID NO: 118: P54AR4-83v2, (AP)5, P114AR5P74-A5, linked to albumin binding domain (protein)
chain: MLPAPKNLVVSEVTEDSARLSWDDPWAFYESFLIQYQESEKVGEAIVLTVPGSERSYDLTGLKPGTEYTVSIYGVHNVYKDTNMRGLPLSAIFTTAPAPAPAPAPLPAPKNLVVSRVTEDSARLSWTAPDAAFDSFWIRYDEVVVGGEAIVLTVPGSERSYDLTGLKPGTEYYVNILGVKGGSISVPLSAIFTTAPAPAPAPAPLAEAKVLANRELDKYGVSDYYKNLINNAKTVEGVKALLDEILAALP
modifications: Bispecific EGFR/c-Met binding molecule
- tumor growth (tumor growth inhibition, TGI) [5]: reduced tumor growth
- tumor growth (tumor growth inhibition, TGI) ([5]; listed as P54AR4-83v2-P114AR5P74-A5): delay in tumor growth

B12: ECB28: bispecific SEQ ID NO: 119: P53A1R5-17v2, (AP)5, P114AR5P74-A5, linked to albumin binding domain (protein)
chain: MLPAPKNLVVSEVTEDSARLSWADPHGFYDSFLIQYQESEKVGEAIVLTVPGSERSYDLTGLKPGTEYTVSIYGVHNVYKDTNMRGLPLSAIFTTAPAPAPAPAPLPAPKNLVVSRVTEDSARLSWTAPDAAFDSFWIRYDEVVVGGEAIVLTVPGSERSYDLTGLKPGTEYYVNILGVKGGSISVPLSAIFTTAPAPAPAPAPLAEAKVLANRELDKYGVSDYYKNLINNAKTVEGVKALLDEILAALP
modifications: Bispecific EGFR/c-Met binding molecule
- tumor growth (tumor growth inhibition, TGI) [5]: reduced tumor growth

B13: ECB39: bispecific SEQ ID NO: 121: P53A1R5-17v2, (AP)5, P114AR7P94-A3, linked to albumin binding domain (protein)
chain: MLPAPKNLVVSEVTEDSARLSWADPHGFYDSFLIQYQESEKVGEAIVLTVPGSERSYDLTGLKPGTEYTVSIYGVHNVYKDTNMRGLPLSAIFTTAPAPAPAPAPLPAPKNLVVSRVTEDSARLSWTAPDAAFDSFWIRYFEFLGSGEAIVLTVPGSERSYDLTGLKPGTEYVVNIMGVKGGKISPPLSAIFTTAPAPAPAPAPLAEAKVLANRELDKYGVSDYYKNLINNAKTVEGVKALLDEILAALP
modifications: Bispecific EGFR/c-Met binding molecule
- tumor growth (tumor growth inhibition, TGI) [5]: reduced tumor growth
- tumor growth (tumor growth inhibition, TGI) ([5]; listed as P53A1R5-17v2-P114AR7P94-A3): showed the most efficacy
